This data set can be described thus: protein stability index of a GFP-peptide fusion (GPS, HEK-293T) (PSI 1-6); higher = more stable. To be noted: c terminus: a fixed tail appended.

Consider 36 sequences from the supplement of paper PMC10567573.

± gives the standard deviation.
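Note: 24-mer peptide tiles fused after GFP, lentivirally expressed, FACS-sorted into six equal bins by GFP/DsRed ratio, decoded by Illumina sequencing, PSI is the read-weighted mean bin number.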

Regarding REQEKKPKKEANQAPKSKSGSRPR [LRRC59], the protein stability index by setting is: (treatment: DMSO) 5.41 ± 0.16; (treatment: MLN4924 1 uM, 8 h) 5.3 ± 0.23.

In the case of FVLQAIGIPGWGFSGWISALVVPK [SCAMP3], the protein stability index (treatment: DMSO) was 3.08 ± 0.53 and the protein stability index (treatment: MLN4924 1 uM, 8 h) worked out at 2.88 ± 0.37.

As to LGGAAFLGTAIFIEADRRRAQLHV [SPNS1], the protein stability index worked out at 2.35 ± 0.74 (treatment: DMSO) and 2.32 ± 0.53 (treatment: MLN4924 1 uM, 8 h).

For VKCFNDLKAEELLLKIHEVSTVSH [CASP6], the protein stability index reads like this: (treatment: DMSO) 2.23 ± 0.24; (treatment: MLN4924 1 uM, 8 h) 2.44 ± 0.16.

With KGNRTARIIDKPRVIEVLPRGATA [SEPHS2], the protein stability index is, setting by setting: (treatment: DMSO) 3.64 ± 0.22; (treatment: MLN4924 1 uM, 8 h) 3.77 ± 0.2.

As to GLPFILRPTSCWQLDWDELETNQQ [M1AP], the protein stability index was 2.62 ± 0.056 (treatment: DMSO) and 2.67 ± 0.24 (treatment: MLN4924 1 uM, 8 h).

ADAFHHQVHDDDLLSSSEEECKDR [EMD] returned a protein stability index (treatment: DMSO) of 5.66 ± 0.14 and a protein stability index (treatment: MLN4924 1 uM, 8 h) of 5.66 ± 0.17.

As for RAILYPCHGMSSQLVRYSADGLLQ [GALNT9], the protein stability index was found to be 2.69 ± 0.22 (treatment: DMSO) and 2.76 ± 0.27 (treatment: MLN4924 1 uM, 8 h).

As to TLPAGADFLMCYSVAEGYYSHRET [CASP6], the protein stability index by setting is: (treatment: DMSO) 2.5 ± 0.15; (treatment: MLN4924 1 uM, 8 h) 2.51 ± 0.4.

Regarding FWRIDEDYPVQVAPLSNGLCCAFS [WSB1], the protein stability index amounted to 2.06 ± 0.43 (treatment: DMSO) and 2.41 ± 0.39 (treatment: MLN4924 1 uM, 8 h).

For PDSHQKRPQHSHSNKKRPSLDGRD [ELOA2], the protein stability index turned out to be 5.33 ± 0.17 (treatment: DMSO) and 5.14 ± 0.21 (treatment: MLN4924 1 uM, 8 h).

Take LLDIKTRLEQEIATYRSLLEGQDA [KRT13]: the protein stability index amounted to 3.45 ± 0.19 (treatment: DMSO) and 3.51 ± 0.26 (treatment: MLN4924 1 uM, 8 h).

Turning to QDLCGVSTCDTLGMADVGTVCDPA [ADAMTS4], the protein stability index is, setting by setting: (treatment: DMSO) 5.07 ± 0.25; (treatment: MLN4924 1 uM, 8 h) 5.25 ± 0.26.

Regarding LASYLEKVRALEEANADLEVKIRD [KRT13], the protein stability index worked out at 3.52 ± 0.22 (treatment: DMSO) and 3.56 ± 0.26 (treatment: MLN4924 1 uM, 8 h).

As for PGRSSVASPRRLSNVSSSGSINLL [MAP2], the protein stability index turned out to be 3.63 ± 0.16 (treatment: DMSO) and 3.48 ± 0.16 (treatment: MLN4924 1 uM, 8 h).

AIVRKCRQKGTGKEYAAKFIKKRR [DAPK3] had a protein stability index (treatment: DMSO) of 3.45 ± 0.24 and a protein stability index (treatment: MLN4924 1 uM, 8 h) of 3.81 ± 0.32.

LVKKYGTKQWTLIAKHLKGRLGKQ [MYBL2] gave a protein stability index (treatment: DMSO) of 2.43 ± 0.89 and a protein stability index (treatment: MLN4924 1 uM, 8 h) of 2.45 ± 0.53.

With EMVRFLLEAGADQEHKTDEMHTAL [ANKRD17], the protein stability index runs as follows: (treatment: DMSO) 2.88 ± 0.38; (treatment: MLN4924 1 uM, 8 h) 3.05 ± 0.42.

For the sequence VRLKPALQRLDFSVRGYMMSKQRE [RETREG3], the protein stability index is, setting by setting: (treatment: DMSO) 2.64 ± 0.48; (treatment: MLN4924 1 uM, 8 h) 2.7 ± 0.44.

TSSSTVVSTQRSQDHFHVFVGDLS [TIA1] gave a protein stability index (treatment: DMSO) of 3.34 ± 0.071 and a protein stability index (treatment: MLN4924 1 uM, 8 h) of 3.42 ± 0.23.

As for LPHQSHRQRSSLAKINIVYQELNY [SCNN1D], the protein stability index by setting is: (treatment: DMSO) 2.54 ± 0.23; (treatment: MLN4924 1 uM, 8 h) 2.54 ± 0.3.

As for GILERYWLSSRAAAIKVNDSVPFH [MYORG], the protein stability index (treatment: DMSO) was determined as 2.02 ± 0.42 and the protein stability index (treatment: MLN4924 1 uM, 8 h) amounted to 1.78 ± 0.28.

Turning to YHSQDELGGFSHWGRLTSYSGGGY [PKD2L1], the protein stability index worked out at 2.66 ± 0.6 (treatment: DMSO) and 2.52 ± 0.34 (treatment: MLN4924 1 uM, 8 h).

Turning to AEMSRVSIRILDELVLPFQELQID [HNF4A], the protein stability index stood at 2.67 ± 0.35 (treatment: DMSO) and 2.74 ± 0.23 (treatment: MLN4924 1 uM, 8 h).

Take AGDRFLEALGFSWHDTCFVCAICQ [PDLIM7]: the protein stability index (treatment: DMSO) worked out at 2.32 ± 0.4 and the protein stability index (treatment: MLN4924 1 uM, 8 h) stood at 2.52 ± 0.28.

ILFSLPPALDWDSVHVPGPHAMTI [PTPN9]: the protein stability index by setting is: (treatment: DMSO) 2.66 ± 0.42; (treatment: MLN4924 1 uM, 8 h) 2.35 ± 0.62.

For the sequence KEVFASRISNPSDDNSCEDLEEER [PCMTD2], the protein stability index was determined as 5.55 ± 0.33 (treatment: DMSO) and 5.41 ± 0.31 (treatment: MLN4924 1 uM, 8 h).

With VGDEFLNCKLATRAKDFLPADIQA [SNX8], the protein stability index runs as follows: (treatment: DMSO) 2.88 ± 0.26; (treatment: MLN4924 1 uM, 8 h) 2.92 ± 0.27.

Consider DEQKEEEEEEGEEEELIRIFQEQQ [FAM9B], for which the protein stability index is, setting by setting: (treatment: DMSO) 5.51 ± 0.34; (treatment: MLN4924 1 uM, 8 h) 5.47 ± 0.29.

On to VKEELSQKFDTLYAILDEKKSELL [TRIM63], for which the protein stability index (treatment: DMSO) was found to be 3.6 ± 0.41 and the protein stability index (treatment: MLN4924 1 uM, 8 h) came to 3.58 ± 0.17.

For the sequence VLDSLLLTLLPQLQEAWQQRTPSP [RSAD1], the protein stability index came to 2.85 ± 0.052 (treatment: DMSO) and 3.27 ± 0.43 (treatment: MLN4924 1 uM, 8 h).

TASDSESRAESAPLPVSADDTPEV [CDS2]: the protein stability index reads like this: (treatment: DMSO) 5.48 ± 0.45; (treatment: MLN4924 1 uM, 8 h) 5.36 ± 0.38.

For SFRRNVGRVLLANSTQADEGKTKK [FBXO34], the protein stability index by setting is: (treatment: DMSO) 4.71 ± 0.46; (treatment: MLN4924 1 uM, 8 h) 4.85 ± 0.35.

As to RSGSPTVPIKPPCIPNGKENFSGG [CAMK2D], the protein stability index reads like this: (treatment: DMSO) 4.2 ± 0.2; (treatment: MLN4924 1 uM, 8 h) 4.32 ± 0.21.

For DKNLTEREVFNEIYPVWTYSYLVL [SLC19A2], the protein stability index runs as follows: (treatment: DMSO) 2.81 ± 0.64; (treatment: MLN4924 1 uM, 8 h) 2.65 ± 0.46.

Take EPSQMLKHAVVNLINYQDDAELAT [CTNNB1]: the protein stability index runs as follows: (treatment: DMSO) 4.16 ± 0.32; (treatment: MLN4924 1 uM, 8 h) 4.25 ± 0.26.
